Biological target: the molecule itself
Experiment: cryo-EM structure; detergent-solubilized raw ghost membrane of human RBC reconstituted into MSP1E3D1 nanodiscs (POPC:POPE:POPG), enriched on Superose 6 in 20 mM Tris-HCl pH 7.5, 100 mM NaCl; Build and Retrieve processing; OF-IF and IF-IF dimers

B1: human band 3 anion transporter (natural protein, UniProt P02730 1-911, looked up)
chain: MEELQDDYEDMMEENLEQEEYEDPDIPESQMEEPAAHDTEATATDYHTTSHPGTHKVYVELQELVMDEKNQELRWMEAARWVQLEENLGENGAWGRPHLSHLTFWSLLELRRVFTKGTVLLDLQETSLAGVANQLLDRFIFEDQIRPQDREELLRALLLKHSHAGELEALGGVKPAVLTRSGDPSQPLLPQHSSLETQLFCEQGDGGTEGHSPSGILEKIPPDSEATLVLVGRADFLEQPVLGFVRLQEAAELEAVELPVPIRFLFVLLGPEAPHIDYTQLGRAAATLMSERVFRIDAYMAQSRGELLHSLEGFLDCSLVLPPTDAPSEQALLSLVPVQRELLRRRYQSSPAKPDSSFYKGLDLNGGPDDPLQQTGQLFGGLVRDIRRRYPYYLSDITDAFSPQVLAAVIFIYFAALSPAITFGGLLGEKTRNQMGVSELLISTAVQGILFALLGAQPLLVVGFSGPLLVFEEAFFSFCETNGLEYIVGRVWIGFWLILLVVLVVAFEGSFLVRFISRYTQEIFSFLISLIFIYETFSKLIKIFQDHPLQKTYNYNVLMVPKPQGPLPNTALLSLVLMAGTFFFAMMLRKFKNSSYFPGKLRRVIGDFGVPISILIMVLVDFFIQDTYTQKLSVPDGFKVSNSSARGWVIHPLGLRSEFPIWMMFASALPALLVFILIFLESQITTLIVSKPERKMVKGSGFHLDLLLVVGMGGVAALFGMPWLSATTVRSVTHANALTVMGKASTPGAAAQIQEVKEQRISGLLVAVLVGLSILMEPILSRIPLAVLFGIFLYMGVTSLSGIQLFDRILLLFKPPKYHPDVPYVKRVKTWRMHLFTGIQIICLAVLWVVKSTPASLALPFVLILTVPLRRVLLPLIFRNVELQCLDADDAKATFDEEEGRDEYDEVAMPV
modifications: N-linked N-acetylglucosamine (NAG) at N642
notes: band 3 anion transporter (AE1), human erythrocyte form of 911 amino acids, encoded by SLC4A1; endogenous protein from ghost membranes; the model of each subunit holds residues 372-888 except 743-751; Native protein from a crude membrane extract, identified from the cryo-EM maps (Build and Retrieve, Model Angelo); PC and PIP2 lipids lie at the subunit interface; also called band 3 transporter; …
With B1 the “stoichiometry N” value was 2.
